# Values of other authors as cited in PMC4150018.
# Target: thrombin (Bos taurus) (UniProt P00735)
# Sequence of UniProt P00735 (P00735 318-366): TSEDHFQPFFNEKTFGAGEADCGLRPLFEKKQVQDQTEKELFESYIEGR
substance,measurement,value
rhodniin (Kazal-type thrombin inhibitor) (from UniProt Q06684),Ki,0.2 pM
